IntAct's records for PubMed 20562859

How the values were obtained:
fyco1_human FYCO1 = target: T1, fyco1_human FYCO1 (UniProt Q9BQS8)
T1 sequence: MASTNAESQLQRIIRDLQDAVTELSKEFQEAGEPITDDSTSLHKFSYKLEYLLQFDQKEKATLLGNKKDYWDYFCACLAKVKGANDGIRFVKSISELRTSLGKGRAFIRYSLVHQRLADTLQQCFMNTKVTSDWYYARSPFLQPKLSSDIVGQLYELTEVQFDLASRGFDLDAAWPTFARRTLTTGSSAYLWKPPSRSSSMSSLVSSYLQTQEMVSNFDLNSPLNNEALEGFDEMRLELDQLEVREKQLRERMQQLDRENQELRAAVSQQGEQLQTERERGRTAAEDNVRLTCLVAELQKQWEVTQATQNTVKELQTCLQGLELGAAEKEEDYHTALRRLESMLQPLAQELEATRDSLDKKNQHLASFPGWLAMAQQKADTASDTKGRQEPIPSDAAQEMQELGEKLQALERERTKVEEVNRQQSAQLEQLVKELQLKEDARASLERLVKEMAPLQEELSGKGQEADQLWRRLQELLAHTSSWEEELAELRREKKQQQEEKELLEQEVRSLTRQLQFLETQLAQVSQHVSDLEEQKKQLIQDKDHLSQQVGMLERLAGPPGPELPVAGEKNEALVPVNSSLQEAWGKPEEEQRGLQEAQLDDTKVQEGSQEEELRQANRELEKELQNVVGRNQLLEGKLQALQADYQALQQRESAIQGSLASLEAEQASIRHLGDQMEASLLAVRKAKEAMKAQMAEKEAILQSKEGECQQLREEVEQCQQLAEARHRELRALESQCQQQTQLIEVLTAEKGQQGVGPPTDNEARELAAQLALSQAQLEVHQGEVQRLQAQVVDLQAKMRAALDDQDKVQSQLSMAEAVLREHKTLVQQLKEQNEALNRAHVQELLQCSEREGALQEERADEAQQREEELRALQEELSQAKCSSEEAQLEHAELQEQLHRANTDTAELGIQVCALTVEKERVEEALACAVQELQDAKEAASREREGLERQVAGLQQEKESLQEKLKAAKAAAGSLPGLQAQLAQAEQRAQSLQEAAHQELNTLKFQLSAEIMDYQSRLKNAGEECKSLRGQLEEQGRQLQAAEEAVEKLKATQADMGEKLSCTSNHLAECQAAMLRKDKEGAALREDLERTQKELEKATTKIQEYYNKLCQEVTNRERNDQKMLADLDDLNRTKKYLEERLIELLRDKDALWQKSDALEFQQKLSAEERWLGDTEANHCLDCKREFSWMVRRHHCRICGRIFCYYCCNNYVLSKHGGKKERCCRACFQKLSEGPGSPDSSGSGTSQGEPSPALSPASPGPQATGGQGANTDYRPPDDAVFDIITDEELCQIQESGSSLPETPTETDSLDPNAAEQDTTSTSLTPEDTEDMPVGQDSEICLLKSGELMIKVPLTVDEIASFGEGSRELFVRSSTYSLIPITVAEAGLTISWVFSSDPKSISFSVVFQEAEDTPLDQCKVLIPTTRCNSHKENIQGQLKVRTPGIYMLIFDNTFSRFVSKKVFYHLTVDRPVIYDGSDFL

atg13_human ATG13 = target: T2, atg13_human ATG13 (UniProt O75143)
T2 sequence: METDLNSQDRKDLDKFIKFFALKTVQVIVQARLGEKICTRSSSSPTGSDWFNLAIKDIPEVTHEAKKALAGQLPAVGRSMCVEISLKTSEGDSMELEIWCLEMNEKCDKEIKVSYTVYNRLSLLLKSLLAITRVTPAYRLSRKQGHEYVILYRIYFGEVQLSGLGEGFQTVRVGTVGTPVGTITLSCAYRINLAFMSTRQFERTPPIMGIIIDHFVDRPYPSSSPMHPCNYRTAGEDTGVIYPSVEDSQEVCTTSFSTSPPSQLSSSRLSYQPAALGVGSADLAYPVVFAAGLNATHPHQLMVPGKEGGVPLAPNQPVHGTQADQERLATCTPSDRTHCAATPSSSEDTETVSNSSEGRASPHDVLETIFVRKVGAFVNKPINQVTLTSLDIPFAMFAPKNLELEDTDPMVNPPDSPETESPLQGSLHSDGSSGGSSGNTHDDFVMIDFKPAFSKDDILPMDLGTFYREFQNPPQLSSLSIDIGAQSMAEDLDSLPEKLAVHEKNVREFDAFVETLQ

tbd2b_human TBC1D2B = target: T3, tbd2b_human TBC1D2B (UniProt Q9UPU7)
T3 sequence: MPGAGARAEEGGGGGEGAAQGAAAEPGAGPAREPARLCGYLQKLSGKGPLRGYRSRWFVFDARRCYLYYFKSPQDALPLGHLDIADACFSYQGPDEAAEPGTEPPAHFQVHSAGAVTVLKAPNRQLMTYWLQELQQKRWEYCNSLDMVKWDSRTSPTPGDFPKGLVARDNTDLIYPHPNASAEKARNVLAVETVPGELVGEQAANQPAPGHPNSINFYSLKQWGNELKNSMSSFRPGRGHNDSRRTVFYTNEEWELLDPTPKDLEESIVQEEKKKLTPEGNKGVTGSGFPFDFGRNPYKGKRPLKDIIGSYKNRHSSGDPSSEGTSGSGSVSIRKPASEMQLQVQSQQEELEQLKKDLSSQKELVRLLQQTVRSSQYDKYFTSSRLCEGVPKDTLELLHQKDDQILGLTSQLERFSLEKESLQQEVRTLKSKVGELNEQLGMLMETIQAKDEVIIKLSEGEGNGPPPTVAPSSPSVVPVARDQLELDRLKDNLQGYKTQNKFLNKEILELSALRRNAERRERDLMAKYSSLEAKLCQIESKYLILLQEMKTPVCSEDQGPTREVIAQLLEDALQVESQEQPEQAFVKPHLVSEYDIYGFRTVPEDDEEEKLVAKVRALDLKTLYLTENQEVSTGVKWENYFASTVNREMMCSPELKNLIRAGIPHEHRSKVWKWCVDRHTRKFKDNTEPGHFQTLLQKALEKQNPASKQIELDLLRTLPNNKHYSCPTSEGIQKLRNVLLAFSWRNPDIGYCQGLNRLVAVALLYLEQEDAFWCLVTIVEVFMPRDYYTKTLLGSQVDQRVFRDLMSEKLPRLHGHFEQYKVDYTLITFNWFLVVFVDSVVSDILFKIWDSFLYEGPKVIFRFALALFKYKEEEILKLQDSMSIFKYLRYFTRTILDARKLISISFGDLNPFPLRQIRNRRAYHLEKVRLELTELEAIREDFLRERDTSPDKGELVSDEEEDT

Microtubule-associated protein 1 light chain 3 beta (Homo sapiens) (from UniProt Q9GZQ8) R69A
effect of a mutation on the interaction (fyco1_human FYCO1): decreasing interaction
effect of a mutation on the interaction (atg13_human ATG13): decreasing interaction
effect of a mutation on the interaction (tbd2b_human TBC1D2B): disrupting interaction
